Test results from patent US20240116997A1 (BRIGHT PEAK THERAPEUTICS, published 2024).

T1: IL-18 receptor (IL-18Rαβ) on cells (UniProt Q13478 19-541; O95256 20-599, limits assumed)
T1 sequence (looked up) 1: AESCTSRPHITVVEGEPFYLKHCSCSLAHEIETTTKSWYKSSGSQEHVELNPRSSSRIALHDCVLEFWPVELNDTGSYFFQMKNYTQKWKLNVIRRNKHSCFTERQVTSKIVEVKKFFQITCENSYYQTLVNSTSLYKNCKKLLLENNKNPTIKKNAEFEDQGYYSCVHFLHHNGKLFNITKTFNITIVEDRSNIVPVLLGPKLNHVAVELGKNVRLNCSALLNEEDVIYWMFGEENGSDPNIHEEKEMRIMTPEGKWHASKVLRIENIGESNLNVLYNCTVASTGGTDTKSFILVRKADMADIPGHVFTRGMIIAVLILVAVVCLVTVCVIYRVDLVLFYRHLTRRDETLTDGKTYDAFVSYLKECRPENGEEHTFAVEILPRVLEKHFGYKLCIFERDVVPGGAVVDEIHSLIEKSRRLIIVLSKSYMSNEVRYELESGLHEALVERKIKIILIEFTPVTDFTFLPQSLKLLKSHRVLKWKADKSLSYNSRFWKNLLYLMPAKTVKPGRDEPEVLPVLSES
T1 sequence (looked up) 2: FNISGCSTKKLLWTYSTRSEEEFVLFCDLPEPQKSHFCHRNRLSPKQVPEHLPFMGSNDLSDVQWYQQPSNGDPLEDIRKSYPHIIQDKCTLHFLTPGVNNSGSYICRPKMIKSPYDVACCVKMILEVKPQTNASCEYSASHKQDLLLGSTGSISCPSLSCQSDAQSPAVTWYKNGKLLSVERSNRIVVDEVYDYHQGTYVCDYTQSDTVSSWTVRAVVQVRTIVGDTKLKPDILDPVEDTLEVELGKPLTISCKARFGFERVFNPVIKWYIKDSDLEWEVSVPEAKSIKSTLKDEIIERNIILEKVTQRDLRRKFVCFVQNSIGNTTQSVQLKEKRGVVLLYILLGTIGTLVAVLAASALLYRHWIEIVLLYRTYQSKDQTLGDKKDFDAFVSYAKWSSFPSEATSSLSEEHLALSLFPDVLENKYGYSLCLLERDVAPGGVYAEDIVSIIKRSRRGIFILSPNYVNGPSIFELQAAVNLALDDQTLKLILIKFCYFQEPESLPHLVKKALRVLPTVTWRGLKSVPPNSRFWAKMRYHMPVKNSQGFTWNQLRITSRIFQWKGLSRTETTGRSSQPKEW


These binders were tested against T1, IL-18 receptor (IL-18Rαβ) on cells (assay: cell-based or functional assay).

Binder | EC50 (pM), HEK-Blue IL-18R reporter assay
C182 (E6K, V11I, C38A, K53A, T63A, C76A, C127A, V153Y) (ligand) YFGKLKSKLSIIRNLNDQVLFIDQGNRPLFEDMTDSDARDNAPRTIFIISMYADSQPRGMAVAISVKCEKISTLSAENKIISFKEMNPPDNIKDTKSDIIFFQRSVPGHDNKMQFESSSYEGYFLAAEKERDLFKLILKKEDELGDRSIMFTYQNED | 0.08 pM
IL-18 polypeptide SEQ ID NO: 56 (E6K, K53A, C38S, C76S, C127S) (ligand) YFGKLKSKLSVIRNLNDQVLFIDQGNRPLFEDMTDSDSRDNAPRTIFIISMYADSQPRGMAVTISVKCEKISTLSSENKIISFKEMNPPDNIKDTKSDIIFFQRSVPGHDNKMQFESSSYEGYFLASEKERDLFKLILKKEDELGDRSIMFTVQNED | 3.73 pM
C183 (SEQ ID NO: 80; E6K, V11I, C38A, M51G, K53A, T63A, C76A, C127A) (ligand) YFGKLKSKLSIIRNLNDQVLFIDQGNRPLFEDMTDSDARDNAPRTIFIISGYADSQPRGMAVAISVKCEKISTLSAENKIISFKEMNPPDNIKDTKSDIIFFQRSVPGHDNKMQFESSSYEGYFLAAEKERDLFKLILKKEDELGDRSIMFTVQNED | 0.1 pM
C177 (E6K, V11I, C38A, I49R, K53A, T63A, C76A, C127A) (ligand) YFGKLKSKLSIIRNLNDQVLFIDQGNRPLFEDMTDSDARDNAPRTIFIRSMYADSQPRGMAVAISVKCEKISTLSAENKIISFKEMNPPDNIKDTKSDIIFFQRSVPGHDNKMQFESSSYEGYFLAAEKERDLFKLILKKEDELGDRSIMFTVQNED | 0.04 pM
C142 (Y1M, E6K, V11I, C38A, K53A, T63A, C76A, C127A) (ligand) MFGKLKSKLSIIRNLNDQVLFIDQGNRPLFEDMTDSDARDNAPRTIFIISMYADSQPRGMAVAISVKCEKISTLSAENKIISFKEMNPPDNIKDTKSDIIFFQRSVPGHDNKMQFESSSYEGYFLAAEKERDLFKLILKKEDELGDRSIMFTVQNED | 0.02 pM
C184 (E6R, V11I, C38A, K53A, T63A, C76A, C127A) (ligand) YFGKLRSKLSIIRNLNDQVLFIDQGNRPLFEDMTDSDARDNAPRTIFIISMYADSQPRGMAVAISVKCEKISTLSAENKIISFKEMNPPDNIKDTKSDIIFFQRSVPGHDNKMQFESSSYEGYFLAAEKERDLFKLILKKEDELGDRSIMFTVQNED | 0.04 pM
C174 (K8L, E6K, V11I, C38A, K53A, T63A, C76A, C127A) (ligand) YFGKLKSLLSIIRNLNDQVLFIDQGNRPLFEDMTDSDARDNAPRTIFIISMYADSQPRGMAVAISVKCEKISTLSAENKIISFKEMNPPDNIKDTKSDIIFFQRSVPGHDNKMQFESSSYEGYFLAAEKERDLFKLILKKEDELGDRSIMFTVQNED | 0.29 pM
C141 (SEQ ID NO: 82; N-terminal G, E6K, V11I, C38A, K53A, T63A, C76A, C127A) (ligand) GYFGKLKSKLSIIRNLNDQVLFIDQGNRPLFEDMTDSDARDNAPRTIFIISMYADSQPRGMAVAISVKCEKISTLSAENKIISFKEMNPPDNIKDTKSDIIFFQRSVPGHDNKMQFESSSYEGYFLAAEKERDLFKLILKKEDELGDRSIMFTVQNED | 1.68 pM
C192 (SEQ ID NO: 81; N-terminal G, E6K, V11I, C38A, M51G, K53A, T63A, C76A, C127A) (ligand) GYFGKLKSKLSIIRNLNDQVLFIDQGNRPLFEDMTDSDARDNAPRTIFIISGYADSQPRGMAVAISVKCEKISTLSAENKIISFKEMNPPDNIKDTKSDIIFFQRSVPGHDNKMQFESSSYEGYFLAAEKERDLFKLILKKEDELGDRSIMFTVQNED | 14 pM

The remaining lines, values ahead:

EC50 (pM), HEK-Blue IL-18R reporter assay | Binder
0.26 pM | C178 (E6K, V11I, C38A, K53A, T63A, C76A, Q103R, C127A) (ligand) YFGKLKSKLSIIRNLNDQVLFIDQGNRPLFEDMTDSDARDNAPRTIFIISMYADSQPRGMAVAISVKCEKISTLSAENKIISFKEMNPPDNIKDTKSDIIFFRRSVPGHDNKMQFESSSYEGYFLAAEKERDLFKLILKKEDELGDRSIMFTVQNED
0.4 pM | C179 (E6K, K8E, V11I, C38A, K53A, T63A, C76A, Q103R, C127A) (ligand) YFGKLKSELSIIRNLNDQVLFIDQGNRPLFEDMTDSDARDNAPRTIFIISMYADSQPRGMAVAISVKCEKISTLSAENKIISFKEMNPPDNIKDTKSDIIFFRRSVPGHDNKMQFESSSYEGYFLAAEKERDLFKLILKKEDELGDRSIMFTVQNED
0.07 pM | C176 (E6K, V11I, C38A, I49M, K53A, T63A, C76A, C127A) (ligand) YFGKLKSKLSIIRNLNDQVLFIDQGNRPLFEDMTDSDARDNAPRTIFIMSMYADSQPRGMAVAISVKCEKISTLSAENKIISFKEMNPPDNIKDTKSDIIFFQRSVPGHDNKMQFESSSYEGYFLAAEKERDLFKLILKKEDELGDRSIMFTVQNED
0.1 pM | C181 (E6K, V11I, C38A, K53A, T63A, C76A, C127A, V153E) (ligand) YFGKLKSKLSIIRNLNDQVLFIDQGNRPLFEDMTDSDARDNAPRTIFIISMYADSQPRGMAVAISVKCEKISTLSAENKIISFKEMNPPDNIKDTKSDIIFFQRSVPGHDNKMQFESSSYEGYFLAAEKERDLFKLILKKEDELGDRSIMFTEQNED
2.5 pM | C140 (SEQ ID NO: 83; N-terminal 4xG, E6K, V11I, C38A, K53A, T63A, C76A, C127A) (ligand) GGGGYFGKLKSKLSIIRNLNDQVLFIDQGNRPLFEDMTDSDARDNAPRTIFIISMYADSQPRGMAVAISVKCEKISTLSAENKIISFKEMNPPDNIKDTKSDIIFFQRSVPGHDNKMQFESSSYEGYFLAAEKERDLFKLILKKEDELGDRSIMFTVQNED

Molecular target: T1, IL-18 receptor (IL-18Rαβ) on cells
Experiment: cell-based or functional assay
Remark: another data set of the same source

Binder | EC50 (nM), IFNγ induction, NK-92 cells
IL-18 polypeptide SEQ ID NO: 49 (E06K, K53A, S55A, C38S, C68S, C76S, C127S, K70C) (ligand) YFGKLKSKLSVIRNLNDQVLFIDQGNRPLFEDMTDSDSRDNAPRTIFIISMYADAQPRGMAVTISVKSECISTLSSENKIISFKEMNPPDNIKDTKSDIIFFQRSVPGHDNKMQFESSSYEGYFLASEKERDLFKLILKKEDELGDRSIMFTVQNED | 58.5 nM
IL-18 polypeptide SEQ ID NO: 6 (E6K, V11I, C38A, K53A, T63A, C68A, C76A, D98C, C127A) (ligand) YFGKLKSKLSIIRNLNDQVLFIDQGNRPLFEDMTDSDARDNAPRTIFIISMYADSQPRGMAVAISVKAEKISTLSAENKIISFKEMNPPDNIKDTKSCIIFFQRSVPGHDNKMQFESSSYEGYFLAAEKERDLFKLILKKEDELGDRSIMFTVQNED | 1.37 nM
IL-18 polypeptide SEQ ID NO: 47 (C38S, C68S, C76S, C127S) (ligand) YFGKLESKLSVIRNLNDQVLFIDQGNRPLFEDMTDSDSRDNAPRTIFIISMYKDSQPRGMAVTISVKSEKISTLSSENKIISFKEMNPPDNIKDTKSDIIFFQRSVPGHDNKMQFESSSYEGYFLASEKERDLFKLILKKEDELGDRSIMFTVQNED | 0.115 nM
IL-18 polypeptide SEQ ID NO: 45 (E06K, K53A, S55A, D54A) (ligand) YFGKLKSKLSVIRNLNDQVLFIDQGNRPLFEDMTDSDCRDNAPRTIFIISMYAAAQPRGMAVTISVKCEKISTLSCENKIISFKEMNPPDNIKDTKSDIIFFQRSVPGHDNKMQFESSSYEGYFLACEKERDLFKLILKKEDELGDRSIMFTVQNED | 30 nM
IL-18 polypeptide SEQ ID NO: 44 (E06K, K53A, S55A, F02A) (ligand) YAGKLKSKLSVIRNLNDQVLFIDQGNRPLFEDMTDSDCRDNAPRTIFIISMYADAQPRGMAVTISVKCEKISTLSCENKIISFKEMNPPDNIKDTKSDIIFFQRSVPGHDNKMQFESSSYEGYFLACEKERDLFKLILKKEDELGDRSIMFTVQNED | > 1000 nM

Results, then the binder that gave them:

EC50 (nM), IFNγ induction, NK-92 cells | Binder
6.12 nM | IL-18 polypeptide SEQ ID NO: 43 (E06K, K53A, S55A, Y01G) (ligand) GFGKLKSKLSVIRNLNDQVLFIDQGNRPLFEDMTDSDCRDNAPRTIFIISMYADAQPRGMAVTISVKCEKISTLSCENKIISFKEMNPPDNIKDTKSDIIFFQRSVPGHDNKMQFESSSYEGYFLACEKERDLFKLILKKEDELGDRSIMFTVQNED
0.488 nM | IL-18 polypeptide SEQ ID NO: 48 (C38S, C68S, C76S, C127S, K70C) (ligand) YFGKLESKLSVIRNLNDQVLFIDQGNRPLFEDMTDSDSRDNAPRTIFIISMYKDSQPRGMAVTISVKSECISTLSSENKIISFKEMNPPDNIKDTKSDIIFFQRSVPGHDNKMQFESSSYEGYFLASEKERDLFKLILKKEDELGDRSIMFTVQNED
17.2 nM | IL-18 polypeptide SEQ ID NO: 55 (K53A, T63A, C38S, C68S, C76S, C127S, K70C) (ligand) YFGKLESKLSVIRNLNDQVLFIDQGNRPLFEDMTDSDSRDNAPRTIFIISMYADSQPRGMAVAISVKSECISTLSSENKIISFKEMNPPDNIKDTKSDIIFFQRSVPGHDNKMQFESSSYEGYFLASEKERDLFKLILKKEDELGDRSIMFTVQNED
7.4 nM | IL-18 polypeptide SEQ ID NO: 46 (E06K, K53A, S55A, M51G) (ligand) YFGKLKSKLSVIRNLNDQVLFIDQGNRPLFEDMTDSDCRDNAPRTIFIISGYADAQPRGMAVTISVKCEKISTLSCENKIISFKEMNPPDNIKDTKSDIIFFQRSVPGHDNKMQFESSSYEGYFLACEKERDLFKLILKKEDELGDRSIMFTVQNED
